In this assay the target is C3b C3b (Homo sapiens, UniProt P01024). Briefly: SPR.

The values that follow come from publication PMC3014449 (2010).

Positions of bridges follow the written chain, without caps; N, C: chain ends. Non-standard residues stand in square brackets, D forms with d. Trp(1-Me) = Cn1cc(C[C@H](N)C(=O)O)c2ccccc21; NMeI = CC[C@H](C)[C@H](NC)C(=O)O; Sar = CNCC(=O)O

Sequence of C3b C3b (P01024 566-670): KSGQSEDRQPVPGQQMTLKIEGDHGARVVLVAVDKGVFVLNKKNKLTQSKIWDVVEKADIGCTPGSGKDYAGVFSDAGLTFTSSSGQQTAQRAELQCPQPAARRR

B1: compstatin analogue 21 (peptide)
chain: Ac-ICV[Trp(1-Me)]QDW[Sar]AHRC[NMeI]-NH2
modifications: disulfide 2-12
SMILES: CC[C@H](C)[C@H](NC(C)=O)C(=O)N[C@H]1CSSC[C@@H](C(=O)N(C)[C@H](C(N)=O)[C@@H](C)CC)NC(=O)[C@H](CCCNC(=N)N)NC(=O)[C@H](Cc2c[nH]cn2)NC(=O)[C@H](C)NC(=O)CN(C)C(=O)[C@H](Cc2c[nH]c3ccccc23)NC(=O)[C@H](CC(=O)O)NC(=O)[C@H](CCC(N)=O)NC(=O)[C@H](Cc2cn(C)c3ccccc23)NC(=O)[C@H](C(C)C)NC1=O
For B1, binding was put at a Kd of 2.3 nM. In other words, the single-digit nanomolar range.
